Reference: US20240392262A1, “TRANSPOSASE AND USES THEREOF” (Poseida Therapeutics, Inc., published 2024)

T1: GFP1 Right TAL-PBx (synthetic construct)
T1 chain: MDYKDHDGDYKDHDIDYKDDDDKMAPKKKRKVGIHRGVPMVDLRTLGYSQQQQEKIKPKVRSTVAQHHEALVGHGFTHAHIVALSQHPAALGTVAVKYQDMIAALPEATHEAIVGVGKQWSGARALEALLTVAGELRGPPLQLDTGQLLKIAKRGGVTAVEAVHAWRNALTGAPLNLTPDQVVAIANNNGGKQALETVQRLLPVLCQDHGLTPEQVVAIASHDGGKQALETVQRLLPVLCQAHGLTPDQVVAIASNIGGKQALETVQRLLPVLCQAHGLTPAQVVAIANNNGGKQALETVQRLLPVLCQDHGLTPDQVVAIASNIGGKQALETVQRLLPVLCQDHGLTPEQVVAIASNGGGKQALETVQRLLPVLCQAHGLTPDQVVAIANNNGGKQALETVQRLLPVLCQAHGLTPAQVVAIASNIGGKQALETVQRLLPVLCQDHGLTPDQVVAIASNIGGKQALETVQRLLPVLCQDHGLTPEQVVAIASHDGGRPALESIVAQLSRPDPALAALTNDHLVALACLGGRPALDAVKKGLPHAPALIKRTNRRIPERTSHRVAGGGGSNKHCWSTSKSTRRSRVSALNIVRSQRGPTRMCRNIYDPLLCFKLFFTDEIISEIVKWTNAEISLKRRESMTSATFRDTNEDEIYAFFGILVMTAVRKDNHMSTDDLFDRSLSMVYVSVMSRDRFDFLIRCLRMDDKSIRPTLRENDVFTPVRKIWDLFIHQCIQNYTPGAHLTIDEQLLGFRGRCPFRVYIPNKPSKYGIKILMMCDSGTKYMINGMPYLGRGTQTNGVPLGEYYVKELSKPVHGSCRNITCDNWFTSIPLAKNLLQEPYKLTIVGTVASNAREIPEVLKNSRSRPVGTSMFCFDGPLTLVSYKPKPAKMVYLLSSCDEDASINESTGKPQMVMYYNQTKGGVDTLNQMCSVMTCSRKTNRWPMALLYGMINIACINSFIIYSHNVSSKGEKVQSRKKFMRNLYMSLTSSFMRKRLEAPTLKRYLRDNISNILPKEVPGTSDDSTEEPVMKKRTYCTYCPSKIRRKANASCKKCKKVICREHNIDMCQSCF

T2: GFP1 Right NT-betaN TAL-PBx (synthetic construct)
T2 chain: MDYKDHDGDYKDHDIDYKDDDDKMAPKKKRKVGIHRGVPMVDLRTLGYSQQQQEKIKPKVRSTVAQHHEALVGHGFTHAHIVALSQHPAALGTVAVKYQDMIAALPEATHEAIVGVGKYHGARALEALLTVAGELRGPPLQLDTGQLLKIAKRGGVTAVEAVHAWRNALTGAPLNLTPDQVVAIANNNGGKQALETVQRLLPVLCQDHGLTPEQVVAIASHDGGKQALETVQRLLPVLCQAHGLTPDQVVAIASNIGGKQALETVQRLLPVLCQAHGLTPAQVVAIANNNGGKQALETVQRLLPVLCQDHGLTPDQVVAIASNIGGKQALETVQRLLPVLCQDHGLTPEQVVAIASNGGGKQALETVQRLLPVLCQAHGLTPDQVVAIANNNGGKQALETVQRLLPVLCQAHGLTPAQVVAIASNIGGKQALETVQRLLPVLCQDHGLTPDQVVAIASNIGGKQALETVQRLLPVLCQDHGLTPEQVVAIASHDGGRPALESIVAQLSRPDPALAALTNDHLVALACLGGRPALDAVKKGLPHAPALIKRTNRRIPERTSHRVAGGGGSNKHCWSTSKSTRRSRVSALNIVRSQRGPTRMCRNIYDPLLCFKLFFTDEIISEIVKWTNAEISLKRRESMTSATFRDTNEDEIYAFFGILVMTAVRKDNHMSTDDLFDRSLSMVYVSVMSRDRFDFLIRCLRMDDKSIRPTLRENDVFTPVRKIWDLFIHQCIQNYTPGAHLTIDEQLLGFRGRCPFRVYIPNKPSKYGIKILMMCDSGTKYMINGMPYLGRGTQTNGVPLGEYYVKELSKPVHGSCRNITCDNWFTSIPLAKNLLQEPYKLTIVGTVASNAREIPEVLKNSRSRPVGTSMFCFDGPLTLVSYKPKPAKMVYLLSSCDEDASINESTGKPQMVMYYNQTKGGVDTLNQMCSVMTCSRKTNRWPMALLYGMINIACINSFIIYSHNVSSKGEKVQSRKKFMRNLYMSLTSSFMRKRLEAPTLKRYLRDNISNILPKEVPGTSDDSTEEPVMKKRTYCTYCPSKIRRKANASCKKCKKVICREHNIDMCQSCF

T3: GFP1 Right NT-G TAL-PBx (synthetic construct)
T3 chain: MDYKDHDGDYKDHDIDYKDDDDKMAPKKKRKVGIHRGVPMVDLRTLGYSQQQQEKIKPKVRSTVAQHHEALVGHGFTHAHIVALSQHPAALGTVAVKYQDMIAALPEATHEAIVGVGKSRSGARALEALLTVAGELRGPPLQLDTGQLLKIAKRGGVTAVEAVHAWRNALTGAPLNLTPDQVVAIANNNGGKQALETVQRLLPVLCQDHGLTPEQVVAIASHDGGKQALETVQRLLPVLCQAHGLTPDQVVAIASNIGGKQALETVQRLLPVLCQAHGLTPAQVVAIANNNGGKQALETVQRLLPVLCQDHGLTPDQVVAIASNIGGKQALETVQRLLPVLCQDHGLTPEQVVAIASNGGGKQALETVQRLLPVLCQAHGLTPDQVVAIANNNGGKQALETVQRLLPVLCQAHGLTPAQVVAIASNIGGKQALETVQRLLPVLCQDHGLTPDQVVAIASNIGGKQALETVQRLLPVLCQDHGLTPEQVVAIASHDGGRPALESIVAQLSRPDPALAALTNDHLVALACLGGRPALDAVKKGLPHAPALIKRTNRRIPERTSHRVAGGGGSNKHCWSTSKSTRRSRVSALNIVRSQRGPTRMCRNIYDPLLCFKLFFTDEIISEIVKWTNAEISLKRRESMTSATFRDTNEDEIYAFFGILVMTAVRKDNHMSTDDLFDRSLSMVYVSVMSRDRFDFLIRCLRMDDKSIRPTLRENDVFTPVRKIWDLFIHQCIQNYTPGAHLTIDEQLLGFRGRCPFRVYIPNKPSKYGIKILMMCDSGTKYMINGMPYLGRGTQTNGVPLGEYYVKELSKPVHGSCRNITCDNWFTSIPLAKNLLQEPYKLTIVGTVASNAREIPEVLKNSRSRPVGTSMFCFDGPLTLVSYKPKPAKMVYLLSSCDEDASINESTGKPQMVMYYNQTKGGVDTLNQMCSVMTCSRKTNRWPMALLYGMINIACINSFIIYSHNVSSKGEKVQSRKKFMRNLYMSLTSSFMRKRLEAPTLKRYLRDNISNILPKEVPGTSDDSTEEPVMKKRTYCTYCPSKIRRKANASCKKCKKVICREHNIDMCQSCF

T4: PAH1 Right TAL-PBx (synthetic construct)
T4 chain: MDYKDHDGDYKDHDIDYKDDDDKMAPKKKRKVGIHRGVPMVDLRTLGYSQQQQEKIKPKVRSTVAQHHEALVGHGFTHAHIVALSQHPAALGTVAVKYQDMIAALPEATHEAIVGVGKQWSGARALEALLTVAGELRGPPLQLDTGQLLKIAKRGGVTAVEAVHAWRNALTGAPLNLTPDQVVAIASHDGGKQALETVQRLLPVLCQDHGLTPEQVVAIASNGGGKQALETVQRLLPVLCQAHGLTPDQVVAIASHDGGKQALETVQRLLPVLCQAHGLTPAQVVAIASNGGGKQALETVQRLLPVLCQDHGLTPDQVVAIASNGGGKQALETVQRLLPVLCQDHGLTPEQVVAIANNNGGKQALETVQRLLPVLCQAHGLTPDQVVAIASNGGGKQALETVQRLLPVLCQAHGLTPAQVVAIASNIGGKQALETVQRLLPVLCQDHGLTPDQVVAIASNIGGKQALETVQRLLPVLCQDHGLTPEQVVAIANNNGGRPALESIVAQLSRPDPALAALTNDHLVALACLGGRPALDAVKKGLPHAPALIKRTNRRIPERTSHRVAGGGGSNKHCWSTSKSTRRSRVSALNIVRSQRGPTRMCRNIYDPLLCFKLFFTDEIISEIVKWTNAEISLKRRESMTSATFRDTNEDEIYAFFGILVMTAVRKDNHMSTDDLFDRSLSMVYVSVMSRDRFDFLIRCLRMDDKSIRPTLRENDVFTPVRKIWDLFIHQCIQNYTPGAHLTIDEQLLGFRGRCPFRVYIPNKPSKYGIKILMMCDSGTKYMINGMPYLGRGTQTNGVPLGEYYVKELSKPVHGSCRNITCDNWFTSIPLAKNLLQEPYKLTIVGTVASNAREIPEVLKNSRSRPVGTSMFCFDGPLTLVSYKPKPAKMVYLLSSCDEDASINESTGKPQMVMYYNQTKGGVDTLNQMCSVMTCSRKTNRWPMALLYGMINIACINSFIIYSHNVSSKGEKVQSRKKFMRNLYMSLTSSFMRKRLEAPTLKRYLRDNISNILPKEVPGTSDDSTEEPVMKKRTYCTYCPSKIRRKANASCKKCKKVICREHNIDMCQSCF

T5: PAH1 Left TAL-PBx (synthetic construct)
T5 chain: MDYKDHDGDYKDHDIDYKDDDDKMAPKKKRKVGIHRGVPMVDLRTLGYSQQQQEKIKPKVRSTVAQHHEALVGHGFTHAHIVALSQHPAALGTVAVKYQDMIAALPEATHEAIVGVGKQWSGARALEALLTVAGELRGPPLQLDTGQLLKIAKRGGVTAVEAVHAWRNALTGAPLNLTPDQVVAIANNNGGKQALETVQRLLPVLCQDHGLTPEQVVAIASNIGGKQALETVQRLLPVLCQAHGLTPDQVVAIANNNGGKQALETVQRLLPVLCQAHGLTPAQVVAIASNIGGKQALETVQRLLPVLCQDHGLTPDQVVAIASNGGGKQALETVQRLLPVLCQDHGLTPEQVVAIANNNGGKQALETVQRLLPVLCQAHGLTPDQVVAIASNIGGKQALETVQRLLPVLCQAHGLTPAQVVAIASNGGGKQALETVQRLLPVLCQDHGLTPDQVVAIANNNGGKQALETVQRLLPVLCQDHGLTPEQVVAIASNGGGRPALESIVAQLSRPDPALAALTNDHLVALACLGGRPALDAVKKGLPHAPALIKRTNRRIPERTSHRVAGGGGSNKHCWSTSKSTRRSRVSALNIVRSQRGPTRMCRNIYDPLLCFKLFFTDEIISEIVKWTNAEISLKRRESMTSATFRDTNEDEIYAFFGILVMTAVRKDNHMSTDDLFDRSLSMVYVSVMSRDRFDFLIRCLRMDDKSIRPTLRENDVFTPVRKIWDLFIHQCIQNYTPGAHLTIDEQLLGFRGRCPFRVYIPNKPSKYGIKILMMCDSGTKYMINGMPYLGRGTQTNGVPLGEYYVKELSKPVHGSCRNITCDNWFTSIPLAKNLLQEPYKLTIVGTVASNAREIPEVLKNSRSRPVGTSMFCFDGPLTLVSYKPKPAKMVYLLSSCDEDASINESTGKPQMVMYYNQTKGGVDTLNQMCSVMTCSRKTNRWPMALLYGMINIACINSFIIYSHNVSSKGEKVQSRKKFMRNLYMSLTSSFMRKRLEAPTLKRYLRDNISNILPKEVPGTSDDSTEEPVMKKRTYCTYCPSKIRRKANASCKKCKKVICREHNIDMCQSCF


Legend:
GFP1 Right TAL-PBx = biological target: T1, GFP1 Right TAL-PBx; test: cell_activity; details: tags: 3xFlag, SV40 NLS; chain copies: 2
[1] = biological target: T2, GFP1 Right NT-betaN TAL-PBx; test: cell_activity; details: tags: 3xFlag, SV40 NLS; chain copies: 2
GFP1 Right NT-G TAL-PBx = biological target: T3, GFP1 Right NT-G TAL-PBx; test: cell_activity; details: tags: 3xFlag, SV40 NLS; chain copies: 2
PAH1 Right TAL-PBx = biological target: T4, PAH1 Right TAL-PBx; test: cell_activity; right only; details: tags: 3xFlag, SV40 NLS
PAH1 Left TAL-PBx = biological target: T5, PAH1 Left TAL-PBx; test: cell_activity; left only; details: tags: 3xFlag, SV40 NLS

| Binder | activity (GFP1 Right TAL-PBx) [% GFP+] | activity [1] [% GFP+] | activity (GFP1 Right NT-G TAL-PBx) [% GFP+] | activity (PAH1 Right TAL-PBx) [% GFP+] | activity (PAH1 Left TAL-PBx) [% GFP+] |
| --- | --- | --- | --- | --- | --- |
| GFP1R 13 bp 5'A (dsDNA) DNA 1: AGCAGATGAACGCAATCTCACGGCTTAACTACTGACCTGAAGTTCATCTGCT DNA 2: AGCAGATGAACTTCAGGTCAGTAGTTAAGCCGTGAGATTGCGTTCATCTGCT | 11.3 | 23.7 | 21.5 |  |  |
| GFP1R 13 bp 5'C (dsDNA) DNA 1: CGCAGATGAACGCAATCTCACGGCTTAACTACTGACCTGAAGTTCATCTGCG DNA 2: CGCAGATGAACTTCAGGTCAGTAGTTAAGCCGTGAGATTGCGTTCATCTGCG | 11.5 | 22.3 | 18.5 |  |  |
| PAH1 target (dsDNA) DNA 1: TGAGATGATGTAACATCTATTCCATTAATTTCATTAACTTGCTTACAAGAGA DNA 2: TCTCTTGTAAGCAAGTTAATGAAATTAATGGAATAGATGTTACATCATCTCA |  |  |  | 4.2 | 5.7 |
